Molecular target: FLAG-p53 (UniProt P04637 1-393)
Test: EMSA; BPA (Zn(II) chelator) preincubated; no inhibition; FLAG-p53 12.5 nM; 10 mM Tris-HCl pH 7.4, 2.5 mM DTT, 0.05% NP-40; 10 min preincubation with chelator at 37 °C, then 3 h with probe at 37 °C; electrophoresis at
Conditions: protein: recombinant; tags: FLAG; chain copies: 4; label: FITC; blunt (only the sense strand is printed; it is self-complementary)

FLAG-p53, sequence (P04637 whole entry): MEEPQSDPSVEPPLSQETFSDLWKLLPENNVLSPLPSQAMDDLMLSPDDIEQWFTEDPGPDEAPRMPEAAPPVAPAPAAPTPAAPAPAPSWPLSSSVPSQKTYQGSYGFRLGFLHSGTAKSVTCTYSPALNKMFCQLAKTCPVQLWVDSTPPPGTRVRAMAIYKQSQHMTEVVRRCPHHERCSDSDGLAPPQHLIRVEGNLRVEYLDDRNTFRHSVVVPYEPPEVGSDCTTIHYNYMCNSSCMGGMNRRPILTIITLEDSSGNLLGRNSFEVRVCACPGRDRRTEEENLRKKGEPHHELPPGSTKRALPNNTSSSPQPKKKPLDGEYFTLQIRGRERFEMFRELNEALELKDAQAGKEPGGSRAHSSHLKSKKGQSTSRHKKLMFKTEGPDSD

B1: p53 consensus probe (dsDNA)
DNA 1: GGACATGCCCGGGCATGTCC
DNA 2: GGACATGCCCGGGCATGTCC
  binding result: binds
